Results taken from article PMC5564220 (Cell reports, 2017).
“And” between values parts separate entries of the source, which are not always exact repeats. Identical values can stand only once.

B1: Rvb1 (enzyme, S. cerevisiae, UniProt Q03940 1-463, looked up)
chain: MVAISEVKENPGVNSSNSGAVTRTAAHTHIKGLGLDESGVAKRVEGGFVGQIEAREACGVIVDLIKAKKMSGRAILLAGGPSTGKTALALAISQELGPKVPFCPLVGSELYSVEVKKTETLMENFRRAIGLRIKETKEVYEGEVTELTPEDAENPLGGYGKTISHVIVGLKSAKGTKTLRLDPTIYESIQREKVSIGDVIYIEANTGAVKRVGRSDAYATEFDLETEEYVPLPKGEVHKKKEIVQDVTLHDLDVANARPQGGQDVISMMGQLLKPKKTEITEKLRQEVNKVVAKYIDQGVAELIPGVLFIDEVNMLDIEIFTYLNKALESNIAPVVVLASNRGMTTVRGTEDVISPHGVPPDLIDRLLIVRTLPYDKDEIRTIIERRATVERLQVESSALDLLATMGTETSLRYALQLLAPCGILAQTSNRKEIVVNDVNEAKLLFLDAKRSTKILETSANYL
B2: MBP-Ino80INS (insertion domain of the Ino80 ATPase, residues 1022-1294, MBP fusion with C-terminal histidine tag) (domain or fragment, yeast, UniProt P53115 1022-1294, looked up)
chain: VDSPFSFTTFGKTTSMLTASVANNNSSVISNSNMNLSSMSSNNISNGKFTDLIYSSRNPIKYSLPRLIYEDLILPNYNNDVDIANKLKNVKFNIFNPSTNYELCLFLSKLTGEPSLNEFFRVSTTPLLKRVIERTNGPKNTDSLSFKTITQELLEVTRNAPSEGVMASLLNVEKHAYEREYLNCIQRGYHPNVSAPPVTIEVLGSSHVTNSINNELFDPLISQALSDIPAITQYNMHVKKGIPVEDFPKTGLFPEPLNKNFSSNISMPSMDRF

Legend:
Rvb2 [1] = molecular target: T1, Rvb2 (S. cerevisiae, UniProt Q12464 1-471); assay: native MS
T1 sequence (Q12464 whole entry): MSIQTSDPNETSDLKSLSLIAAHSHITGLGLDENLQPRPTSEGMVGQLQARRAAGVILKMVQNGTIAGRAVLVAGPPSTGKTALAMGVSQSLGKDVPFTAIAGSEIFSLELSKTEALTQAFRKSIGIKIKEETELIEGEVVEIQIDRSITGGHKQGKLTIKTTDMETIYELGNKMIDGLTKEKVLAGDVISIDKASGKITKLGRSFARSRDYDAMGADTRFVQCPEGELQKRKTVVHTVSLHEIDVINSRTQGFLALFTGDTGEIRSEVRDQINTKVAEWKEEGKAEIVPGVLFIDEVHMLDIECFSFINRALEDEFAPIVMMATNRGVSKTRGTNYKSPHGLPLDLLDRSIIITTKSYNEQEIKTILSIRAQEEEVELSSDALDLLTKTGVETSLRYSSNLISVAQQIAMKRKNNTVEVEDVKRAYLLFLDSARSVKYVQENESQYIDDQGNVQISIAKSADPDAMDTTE

Rvb2 [2] = molecular target: T1, Rvb2; assay: intact denatured mass spectrometry
[3] = molecular target: T2, Rvb1/Rvb2 complex (untagged hexamer) (S. cerevisiae, UniProt Q03940 1-463; Q12464 1-471); assay: native MS
T2 sequence (Q12464 whole entry, one chain of several): as the sequence (Q12464 whole entry) above

[4] = molecular target: T2, Rvb1/Rvb2 complex (untagged hexamer); assay: SEC-MALS

Binder	stoichiometry N (Rvb2 [1])	stoichiometry N (Rvb2 [2])	stoichiometry N [3]	stoichiometry N [4]
B1	1 Rvb1 per Rvb2 (3:3 in the hexamer)	1 Rvb1 per Rvb2 (3:3)	–	–
B2	–	–	3 copies of Ino80INS per Rvb1/Rvb2 dodecamer and 1 copies of MBP-Ino80INS per Rvb1/Rvb2 hexamer and 2 copies of Ino80INS per Rvb1/Rvb2 dodecamer	≥ 2 copies of Ino80INS per Rvb1/Rvb2 dodecamer
